Measured values from PMC5558127, “Plant Glyoxylate/Succinic Semialdehyde Reductases: Comparative Biochemical Properties, Function during Chilling Stress, and Subcellular Localization” (Frontiers in Plant Science, 2017).

What was measured:
Test in all cases: NADPH oxidation, absorbance microplate reader
[1] = biological target: MdGLYR1 (Malus domestica, UniProt A0A1C8M582); format: biochemical; settings: 50 μM glyoxylate, 50 μM NADPH, NADP+ varied 0-0.5 mM
[2] = biological target: T1, MdGLYR2 (MdGLYR2Δ54) (Malus domestica, UniProt A0A1C8M593); format: biochemical; settings: 50 μM glyoxylate, 50 μM NADPH, NADP+ varied 0-0.5 mM
T1 construct: N-terminal targeting peptide removed (Δ54)

[3] = biological target: T2, AtGLYR2 (AtGLYR2Δ58) (Arabidopsis thaliana, UniProt F4I907); format: biochemical; settings: 50 μM NADPH fixed; pH optimum of the enzyme, MES/HEPES/TABS 50 mM each; room temperature
T2 construct: gene GLYR2
T2 sequence (F4I907 59-358): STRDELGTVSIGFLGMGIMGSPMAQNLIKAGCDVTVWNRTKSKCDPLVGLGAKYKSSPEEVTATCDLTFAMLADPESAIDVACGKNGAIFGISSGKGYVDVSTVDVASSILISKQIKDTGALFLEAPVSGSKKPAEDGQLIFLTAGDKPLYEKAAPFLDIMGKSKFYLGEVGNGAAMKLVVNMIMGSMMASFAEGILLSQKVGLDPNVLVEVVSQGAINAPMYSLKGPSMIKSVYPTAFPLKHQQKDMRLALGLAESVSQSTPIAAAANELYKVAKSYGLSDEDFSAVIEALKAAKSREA
From the text: NADPH oxidation, absorbance microplate reader on AtGLYR2 (AtGLYR2Δ58)

[4] = biological target: T3, AtGLYR1 (Arabidopsis thaliana, UniProt Q9LSV0); format: biochemical; settings: 50 μM NADPH fixed; pH optimum of the enzyme, MES/HEPES/TABS 50 mM each; room temperature
T3 construct: gene GLYR1
T3 sequence (Q9LSV0 1-289): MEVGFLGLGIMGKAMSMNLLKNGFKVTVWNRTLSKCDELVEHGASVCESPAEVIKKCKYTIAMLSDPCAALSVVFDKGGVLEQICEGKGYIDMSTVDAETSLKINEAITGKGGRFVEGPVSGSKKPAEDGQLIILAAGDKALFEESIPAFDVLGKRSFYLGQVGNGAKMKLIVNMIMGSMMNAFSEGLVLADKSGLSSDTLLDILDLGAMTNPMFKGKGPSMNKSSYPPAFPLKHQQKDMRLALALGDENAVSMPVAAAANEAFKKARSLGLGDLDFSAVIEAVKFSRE
From the text: NADPH oxidation, absorbance microplate reader on AtGLYR1

[5] = substrate: NC(=O)C1=CN([C@@H]2O[C@H](COP(=O)(O)OP(=O)(O)OC[C@H]3O[C@@H](n4cnc5c(N)ncnc54)[C@H](OP(=O)(O)O)[C@@H]3O)[C@@H](O)[C@H]2O)C=CC1; format: biochemical, Malus domestica; settings: 50 μM glyoxylate fixed; pH optimum of the enzyme, MES/HEPES/TABS 50 mM each; room temperature; varied: cofactor
From the text: (§1) NADPH oxidation, absorbance microplate reader on MdGLYR1

[6] = substrate: O=CC(=O)O; format: biochemical, Malus domestica; settings: 50 μM NADPH fixed; pH optimum of the enzyme, MES/HEPES/TABS 50 mM each; room temperature
From the text: as §1

[7] = substrate: O=CCCC(=O)O; format: biochemical, Malus domestica; settings: 50 μM NADPH fixed; pH optimum of the enzyme, MES/HEPES/TABS 50 mM each; room temperature
From the text: as §1

[8] = substrate: NC(=O)C1=CN([C@@H]2O[C@H](COP(=O)(O)OP(=O)(O)OC[C@H]3O[C@@H](n4cnc5c(N)ncnc54)[C@H](OP(=O)(O)O)[C@@H]3O)[C@@H](O)[C@H]2O)C=CC1; format: biochemical, Malus domestica; settings: 50 μM glyoxylate fixed; pH optimum of the enzyme, MES/HEPES/TABS 50 mM each; room temperature; varied: cofactor; remark: listed apart in the source
From the text: (§2) NADPH oxidation, absorbance microplate reader on MdGLYR2 (MdGLYR2Δ54)

[9] = substrate: O=CC(=O)O; format: biochemical, Malus domestica; settings: 50 μM NADPH fixed; pH optimum of the enzyme, MES/HEPES/TABS 50 mM each; room temperature; remark: listed apart in the source
From the text: as §2

[10] = substrate: O=CCCC(=O)O; format: biochemical, Malus domestica; settings: 50 μM NADPH fixed; pH optimum of the enzyme, MES/HEPES/TABS 50 mM each; room temperature; remark: listed apart in the source
From the text: as §2

Q: `NC(=O)c1ccc[n+]([C@@H]2O[C@H](COP(=O)(O)OP(=O)(O)OC[C@H]3O[C@@H](n4cnc5c(N)ncnc54)[C@H](OP(=O)(O)O)[C@@H]3O)[C@@H](O)[C@H]2O)c1` [NADP+] was tested. Which “% inhibition at NADP+/NADPH ratio of 5” value [1] did it give?
A: ~ 50%

Q: And the “% inhibition at NADP+/NADPH ratio of 5” value [2]?
A: ~ 50%

Q: How did the Km [3] turn out when `O=CC(=O)O` [glyoxylate] was run?
A: 19.3 ± 4 µM

Q: What about the Km [4] of the same molecule?
A: 23.2 ± 3.2 µM

B1: MdGLYR1 (Malus domestica) (protein)
chain: MEVGFLGLGIMGKAMSMNLLRHGFKVTVWNRTLSKSHELVEHGASVAETPAEVVRKCKYTIAMLSDPSAALSVVFGKDGILEQICAGKSYVDMSTVDADTSSKINEAIKERGGYFLEAPVSGSKKPAEDGQLVILAAGEKALYEEVIPAFNVMGKKSFYLGQVGNGAKMKLVVNMIMGSMMNAFSEGLVLAGRSGLEPSVLLDVLDLGGIANPMFRLKGPTMIQGSHSPAFPLKHQQKDMRLALALGDETATSMPVAAAANEAFKKARSMGLGDLDFSAVYETVKTLEEPSRNSQLR
Q: Which Km [5] does the source give for B1 here?
A: 3.3 ± 0.5 µM

Q: And the Vmax [5]?
A: 39.4 µmol/min/mg

Q: And the kcat [5]?
A: 22.3 ± 3.4 s⁻¹

Q: What about the kcat/Km [5] of the same molecule?
A: 6.8e+06 ± 278000 M⁻¹ s⁻¹

Q: And the Km [6]?
A: 14.1 ± 2.1 µM

Q: What about the Vmax [6] of the same molecule?
A: 54.7 µmol/min/mg

Q: And the kcat [6]?
A: 30.9 ± 3.8 s⁻¹

Q: And the kcat/Km [6]?
A: 2.23e+06 ± 153000 M⁻¹ s⁻¹

Q: What about the Km [7] of the same molecule?
A: 1133 ± 273 µM

Q: And the Vmax [7]?
A: 8.1 µmol/min/mg

Q: What about the kcat [7] of the same molecule?
A: 4.6 ± 1.6 s⁻¹

Q: And the kcat/Km [7]?
A: 5100 ± 2300 M⁻¹ s⁻¹

B2: MdGLYR2 (MdGLYR2Δ54) (Malus domestica) (protein)
chain: ASSKDELPARVGFLGLGIMGSPMAQNLIKSGCDVTVWNRTKSKCDPLISLGAKYKPSPEEVAASCDVTFAMLADPESAVAVALGKHGAANGMSSGKGYVDVSTVDVATSKLIGGNIKATGASFLEAPVSGSKKPAEDGQLIFLTAGDKSLYETVASLLDIMGKSRFYLGEVGNGAAMKLVVNMIMGSMMASFSEGLLLTEKIGLDPKVLVEVVSQGAISAPMYSMKGPSMIQSVYPTAFPLKHQQKDMRLALGLAESVSQSTPIAAAANELYKVAKSHGLSDEDFSAVIEALKPKLKH
notes: N-terminal targeting peptide removed (Δ54)
Q: What does the source list for B2?
A: Km [8]: 1.8 ± 0.5 µM; Vmax [8]: 28.2 µmol/min/mg; kcat [8]: 15.7 ± 1.5 s⁻¹; kcat/Km [8]: 1.01e+07 ± 2.28e+06 M⁻¹ s⁻¹; Km [9]: 23.9 ± 1.9 µM; Vmax [9]: 34.3 µmol/min/mg; kcat [9]: 19.1 ± 2.1 s⁻¹; kcat/Km [9]: 796000 ± 33000 M⁻¹ s⁻¹; Km [10]: 6500 ± 327 µM; Vmax [10]: 18.6 µmol/min/mg; kcat [10]: 10.3 ± 1.9 s⁻¹; kcat/Km [10]: 1600 ± 200 M⁻¹ s⁻¹
